Tests used:
[1] = molecular target: T1, Toll-like receptor 2 (TLR2), from DC lysate (mouse (endogenous in bone …, UniProt Q9QUN7 25-784)); test: BLI; BLItz system; Protein A sensor loaded with TLR2 or TLR4 antibody (0.1 mg/mL), then DC lysate (0.3 mg/mL, 150 sec); association with purified PAUF or BSA (0.3 mg/mL) for 150 sec, dissociation in PBS for 150 sec; KD from BLItz pro software as a non-advanced kinetics experiment; conditions: one partner purified
T1 construct: TLR2, endogenous in dendritic cells; captured from DC lysate with an anti-mouse CD282 (TLR2) antibody on a Protein A sensor; Other lysate proteins may have been captured along with TLR2; also called CD282; source: endogenous, DC lysate, captured on the sensor by anti-mouse CD282 (TLR2) antibody

[2] = molecular target: T2, Toll-like receptor 4 (TLR4), from DC lysate (mouse (endogenous in bone …, UniProt Q9QUK6 26-835)); test: as above; conditions: one partner purified
T2 construct: TLR4, endogenous in dendritic cells; captured from DC lysate with a TLR4/CD284 antibody on a Protein A sensor; Other lysate proteins (e.g. MD-2) may have been captured along with TLR4 (surmised); also called CD284; source: endogenous, DC lysate, captured on the sensor by TLR4/CD284 antibody (IMGENEX)
T2 sequence (looked up): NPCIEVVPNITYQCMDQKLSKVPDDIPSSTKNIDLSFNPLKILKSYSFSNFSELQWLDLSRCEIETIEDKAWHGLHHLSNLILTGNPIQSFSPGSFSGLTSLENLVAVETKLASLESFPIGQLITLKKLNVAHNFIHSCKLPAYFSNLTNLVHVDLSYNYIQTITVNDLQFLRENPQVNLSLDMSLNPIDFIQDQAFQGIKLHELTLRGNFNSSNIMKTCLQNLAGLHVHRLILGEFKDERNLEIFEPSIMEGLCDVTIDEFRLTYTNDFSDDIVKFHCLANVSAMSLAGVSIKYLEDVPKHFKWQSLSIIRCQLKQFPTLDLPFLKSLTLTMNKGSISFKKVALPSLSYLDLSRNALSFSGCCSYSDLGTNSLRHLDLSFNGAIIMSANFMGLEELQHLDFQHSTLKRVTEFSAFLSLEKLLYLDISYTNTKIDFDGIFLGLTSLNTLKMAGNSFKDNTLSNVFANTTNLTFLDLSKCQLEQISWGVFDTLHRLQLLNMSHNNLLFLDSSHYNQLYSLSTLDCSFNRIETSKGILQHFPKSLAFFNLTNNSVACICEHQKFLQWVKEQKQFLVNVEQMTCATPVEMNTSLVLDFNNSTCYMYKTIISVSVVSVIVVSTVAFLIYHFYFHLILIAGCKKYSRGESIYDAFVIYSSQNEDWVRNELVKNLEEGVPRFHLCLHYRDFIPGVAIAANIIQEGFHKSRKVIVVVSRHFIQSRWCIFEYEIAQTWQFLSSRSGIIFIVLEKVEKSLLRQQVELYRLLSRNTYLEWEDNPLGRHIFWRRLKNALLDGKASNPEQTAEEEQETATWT

T1 sequence (Q9QUN7 25-784): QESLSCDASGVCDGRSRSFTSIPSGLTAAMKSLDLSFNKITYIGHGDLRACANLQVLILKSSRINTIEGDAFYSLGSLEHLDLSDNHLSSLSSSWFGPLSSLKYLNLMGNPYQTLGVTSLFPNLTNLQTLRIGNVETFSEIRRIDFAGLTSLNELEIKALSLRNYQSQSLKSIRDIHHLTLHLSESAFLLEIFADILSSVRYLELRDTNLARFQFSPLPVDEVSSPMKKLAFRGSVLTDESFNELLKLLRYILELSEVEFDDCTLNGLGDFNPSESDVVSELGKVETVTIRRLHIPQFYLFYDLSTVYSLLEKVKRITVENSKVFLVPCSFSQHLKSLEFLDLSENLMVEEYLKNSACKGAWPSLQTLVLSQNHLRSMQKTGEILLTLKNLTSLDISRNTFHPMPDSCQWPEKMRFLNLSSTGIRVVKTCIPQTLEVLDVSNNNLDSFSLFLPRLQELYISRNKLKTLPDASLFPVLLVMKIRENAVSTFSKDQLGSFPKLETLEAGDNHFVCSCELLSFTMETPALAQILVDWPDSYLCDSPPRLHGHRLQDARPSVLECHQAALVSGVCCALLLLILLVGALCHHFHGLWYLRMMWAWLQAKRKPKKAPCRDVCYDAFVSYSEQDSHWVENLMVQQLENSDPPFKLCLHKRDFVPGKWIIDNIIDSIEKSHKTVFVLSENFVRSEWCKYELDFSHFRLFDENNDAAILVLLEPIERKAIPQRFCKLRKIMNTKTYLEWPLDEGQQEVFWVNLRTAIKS

- Kd [1]: 10.6 nM
- Kd [2]: 145 nM
B1: Pancreatic adenocarcinoma upregulated factor (PAUF), recombinant, Fc removed (ligand, human, UniProt Q96DA0 17-172, looked up)
chain: GKMYGPGGGKYFSTTEDYDHEITGLRVSVGLLLVKSVQVKLGDSWDVKLGALGGNTQEVTLQPGEYITKVFVAFQAFLRGMVMYTSKDRYFYFGKLDGQISSAYPSQEGQVLVGIYGQYQLLGIKSIGFEWNYPLEEPTTEPPVNLTYSANSPVGR
notes: As a secreted protein it should lack its signal peptide (surmised); also called purified PAUF; PAUF protein; source: CHO/dhFr- cells, transfected with pcDNA3.1(+)-PAUF-Fc; secreted PAUF-Fc purified using Protein A resin, then Fc removed

— article PMC4695023, “Pancreatic adenocarcinoma upregulated factor serves as adjuvant by activating dendritic cells through stimulation of TLR4” (Oncotarget, 2015)
